Experimental data from patent publication US20230039401A1, “COMPOSITIONS AND METHODS FOR TREATING NRP2-ASSOCIATED DISEASES” (aTyr Pharma, Inc., priority 2018, published 2023).
“Also recorded” adds a separate entry of the source.

What was measured:
[1] = molecular target: T1, NRP2:Fc-HRS(2-60) interaction (Homo sapiens, UniProt O60462); assay: SPR competition of known NRP2 ligands with the NRP2:Fc-HRS(2-60) interaction; type: binding; settings: for effect of ligand on binding of NRP2 to Fc-HRS(2-60) (SPR): NRP2 in the presence of the ligand over immobilized Fc-HRS(2-60); for Competes with Fc-HRS(2-60) for NRP2 binding: SPR, NRP2 binding to immobilized Fc-HRS(2-60) in presence of ligand
T1 construct: Fc (C); purchased R&D Systems 2215-N2
Experimental: (§1) Protein-Protein Interaction studies. […] SPR experiments were conducted on a Bio-Rad ProteOn XPR36 Protein Interaction Array instrument. Proteins were immobilized on different channels of ProteOn GLC sensor chips through amine coupling. Analyte proteins were flowed over the immobilized proteins. The sensor chip surface was regenerated between each analyte run to remove interacting proteins. Data was double referenced against an interspot (untreated chip surface) and a blank surface (activated and deactivated for amine coupling).
Studies were performed to confirm the binding specificity of Neuropilin 2 (NRP2) to Fc-HRS(2-60) using orthologous methods to those used in the large scale Retrogenix screening (Example 1). In a series of experiments, Fc-HRS(2-60) and related proteins were immobilized on SPR chips, and NRP2 and related proteins were flowed as analytes. Upon confirmation of the NRP2:Fc-HRS(2-60) interaction, the dependence on divalent cations was tested as NRP2 is known to have Ca^2+ binding sites. The effects of previously characterized NRP2 ligands on the NRP2: Fc-HRS(2-60) interaction was also tested to determine if these known ligands have competitive effects on the Fc-HRS(2-60) interaction.
(§2) A subset of the known ligands of NRP2 appears to compete binding of Fc-HRS(2-60) to NRP2.

NRP2 = molecular target: T2, NRP2 (Homo sapiens, UniProt O60462); assay: SPR binding of known ligands to NRP2; settings: for binding of ligand to NRP2: applicant's system; for Binding to NRP2 observed by SPR: known NRP2 ligands
T2 construct: Fc (C); purchased R&D Systems 2215-N2
Experimental: as §1, §2

[2] = molecular target: T3, cell-expressed NRP2 (NRP2a-GFP fusion protein on HEK293T cells) (Homo sapiens, UniProt O60462); assay: Immunofluorescence binding of Fc-HRS (2-60) to HEK293T cells overexpressing NRP2v2-GFP; settings: 175 nM Fc-HRS (2-60)/anti-Fc-PE; pre-incubation with the test agent
T3 construct: host or cells: HEK293T
Experimental: Reagents: • PE anti-human IgG Fc Antibody, clone HP6017, Biolegend cat 409304 • Mouse Anti-HRS monoclonal antibody (1-96) Clone 1C8, Abnova cat H00003035-M01 • Mouse IgG2a, Isotype control antibody (MOPC-173), Biolegend cat 400223 • Recombinant Human VEGF-C Protein, R&D Systems, cat 2179-VC-025/CF • Formaldehyde, 16%, methanol free, Ultra Pure, Polysciences, cat 18814-10 • Hoechst 33342, Trihydrochloride, Trihydrate, ThermoFisher Scientific, cat H1399 • Fc-HRS (2-60) was prepared as described in PCT application PCT/US2014/029699 • Gibco DMEM, High Glucose, ThermoFisher Scientific, cat 11965092 • PolyJet™ In Vitro DNA Transfection Reagent, SignaGen, cat SL100688 • Neuropilin 2 (NRP2) (NM_003872) Human ORF Clone, Origene, cat RG220706 • Collagen Coating Solution, Cell Applications Cat 125-100 • 1×PBS containing 1% BSA, 0.9 mM CaCl2 and 20 mM glucose • Binding buffer containing 1% normal mouse IgG (sigma cat 18765) and 2.5% (Human Fc Receptor Binding Inhibitor, ebioscience 14-9161-73).
Cell culture and transfection. […]
Immunofluorescence assays on cultured cells. Binding and quantitation of Fc-HRS (2-60) to cell-expressed NRP2 was achieved using immunofluorescence microscopy. […] The Hoechst stain was replaced with 1×PBS and subsequently read on an IN Cell Analyzer 2200. 20× images were acquired and analyzed using In Cell Analyzer 1000 Workstation software. […]

Molecule	effect of ligand on binding of NRP2 to Fc-HRS(2-60) (SPR) [1]	Competes with Fc-HRS(2-60) for NRP2 binding [1]	binding of ligand to NRP2 (NRP2)	Binding to NRP2 observed by SPR (NRP2)	inhibition of Fc-HRS (2-60) binding to cells expressing NRP2a-GFP [2]
SEMA3C: commercial protein (R&D Systems #5570-S3) (protein, left off: a dimerising Fc or GST) GSSQPQARVYLTFDELRETKTSEYFSLSHHPLDYRILLMDEDQDRIYVGSKDHILSLNINNISQEALSVFWPASTIKVEECKMAGKDPTHGCGNFVRVIQTFNRTHLYVCGSGAFSPVCTYLNRGRRSEDQVFMIDSKCESGKGRCSFNPNVNTVSVMINEELFSGMYIDFMGTDAAIFRSLTKRNAVRTDQHNSKWLSEPMFVDAHVIPDGTDPNDAKVYFFFKEKLTDNNRSTKQIHSMIARICPNDTGGLRSLVNKWTTFLKARLVCSVTDEDGPETHFDELEDVFLLETDNPRTTLVYGIFTTSSSVFKGSAVCVYHLSDIQTVFNGPFAHKEGPNHQLISYQGRIPYPRPGTCPGGAFTPNMRTTKEFPDDVVTFIRNHPLMYNSIYPIHKRPLIVRIGTDYKYTKIAVDRVNAADGRYHVLFLGTDRGTVQKVVVLPTNNSVSGELILEELEVFKNHAPITTMKISSKKQQLYVSSNEGVSQVSLHRCHIYGTACADCCLARDPYCAWDGHSCSRFYPTGKRRSRRQDVRHGNPLTQCRGFNLKAYRNAAEIVQYGVKNNTTFLECAPKSPQASIKWLLQKDKDRRKEVKLNERIIATSQGLLIRSVQGSDQGLYHCIATENSFKQTIAKINFKVLDSEMVAVVTDKWSPWTWASSVRALPFHPKDIMGAFSHSEMQMINQYCKDTRQQHQQGDESQKMRGDYGKLKALINS	do not affect	No	do bind	Yes	
PlGf-2/Heparin (protein) LPAVPPQQWALSAGNGSSEVEVVPFQEVWGRSYCRALERLVDVVSEYPSEVEHMFSPSCVSLLRCTGCCGDENLHCVPVETANVTMQLLKIRSGDRPSYVELTFSQHVRCECRPLREKMKPERRRPKGRGKRRREKQRPTDCHLCGDAVPRR		Yes			
mouse SEMA3F: commercial protein (R&D Systems #3237-S3) (protein, left off: a dimerising Fc or GST) ATPIQDQLPATPRVRLSFKELKATGTAHFFNFLLNTTDYRILLKDEDHDRMYVGSKDYVLSLDLHDINREPLIIHWAASPQRIEECILSGKDGNGECGNFVRLIQPWNRTHLYVCGTGAYNPMCTYVNRGRRAQALPWTQMQVVRGRGSRATDGADRPTPTAPRQDYIFYLEPEKLESGKGKCPYDPKLDTASALINEELYAGVYIDFMGTDAAIFRTLGKQTAMRTDQYNSRWLNDPSFIHAELIPDSAERNDDKLYFFFRERSAEAPQNPAVYARIGRICLNDDGGHCCLVNKWSTFLKARLVCSVPGEDGIETHFDELQDVFVQQTQDVRNPVIYAVFTSSGSVFRGSAVCVYSMADIRMVFNGPFAHKEGPNYQWMPFSGKMPYPRPGTCPGGTFTPSMKSTKDYPDEVINFMRTHPLMYQAVYPLQRRPLVVRTGAPYRLTTVAVDQVDAADGRYEVLFLGTDRGTVQKVIVLPKDDQEVEELMLEEVEVFKEPAPVKTMTISSKRQQLYVASAVGVTHLSLHRCQAYGAACADCCLARDPYCAWDGQACSRYTASSKRRSRRQDVRHGNPIRQCRGFNSNANKNAVESVQYGVAGSAAFLECQPRSPQATVKWLFQRDPSDRRREIRAEDRFLRTEQGLLLRALQLGDRGLYSCTATENNFKHIVTRVQLHVLGRDAVHAALFPPLAVSVPPPPGTGPPTPPYQELAQLLAQPEVGLIHQYCQGYWRHVPPRPREAPGALRPPELQDQKKPRNRRHHPPDT	do not affect	No	do bind	Yes	
VEGF-A145: commercial protein (R&D Systems #7626-VE-CF) (protein) APMAEGGGQNHHEVVKFMDVYQRSYCHPIETLVDIFQEYPDEIEYIFKPSCVPLMRCGGCCNDEGLECVPTEESNITMQIMRIKPHQGQHIGEMSFLQHNKCECRPKKDRARQEKKSVRGKGKGQKRKRKKSRYKSWSVCDKPRR	unaffected	No	does not bind NRP2 in our system	No	
VEGF-A121: commercial protein (Peprotech #100-20A) (protein) APMAEGGGQNHHEVVKFMDVYQRSYCHPIETLVDIFQEYPDEIEYIFKPSCVPLMRCGGCCNDEGLECVPTEESNITMQIMRIKPHQGQHIGEMSFLQHNKCECRPKKDRARQEKCDKPRR	unaffected	No	does not bind	No	
VEGF-C: commercial NRP2 ligand protein (R&D Systems) (protein) TEETIKFAAAHYNTEILKSIDNEWRKTQCMPREVCIDVGKEFGVATNTFFKPPCVSVYRCGGCCNSEGLQCMNTSTSYLSKTLFEITVPLSQGPKPVTISFANHTSCRCMSKLDVYRQVHSIIRR	reduced or ablated	Yes		Yes	binding inhibition; also recorded: direct competition
